Measured values as given in PMC314469, “Protein Interaction Networks by Proteome Peptide Scanning” (PLoS Biology, 2004).

T1: Yhr016c SH3 (YSC84_YEAST), P32793
T1 chain: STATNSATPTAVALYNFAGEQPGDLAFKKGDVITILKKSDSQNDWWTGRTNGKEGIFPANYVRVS

T2: Yfr024 SH3 (LSB3_YEAST), P43603
T2 chain: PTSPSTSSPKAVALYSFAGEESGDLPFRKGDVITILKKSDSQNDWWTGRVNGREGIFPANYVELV

T3: Boi1 SH3 (BOI1_YEAST), P38041
T3 chain: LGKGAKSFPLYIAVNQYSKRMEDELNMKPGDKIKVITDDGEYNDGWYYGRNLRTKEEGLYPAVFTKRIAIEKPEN

T4: Myo5 SH3 (MYO5_YEAST), Q04439
T4 chain: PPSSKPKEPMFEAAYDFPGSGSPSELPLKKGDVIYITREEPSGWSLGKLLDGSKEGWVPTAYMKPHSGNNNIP

T5: Boi2 SH3 (BOI2_YEAST), P39969
T5 chain: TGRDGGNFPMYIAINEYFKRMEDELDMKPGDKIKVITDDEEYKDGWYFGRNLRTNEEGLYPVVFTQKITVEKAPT

T6: Rvs167 SH3 (RV167_YEAST), P39743
T6 chain: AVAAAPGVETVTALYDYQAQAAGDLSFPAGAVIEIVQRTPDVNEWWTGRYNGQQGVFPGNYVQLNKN


How the values were obtained:
Assay in all cases: SPOT array
[1] = biological target: T1, Yhr016c SH3 (YSC84_YEAST), P32793
[2] = biological target: T2, Yfr024 SH3 (LSB3_YEAST), P43603
[3] = biological target: T3, Boi1 SH3 (BOI1_YEAST), P38041
[4] = biological target: T4, Myo5 SH3 (MYO5_YEAST), Q04439
[5] = biological target: Sho1 SH3 (SHO1_YEAST), P40073
[6] = biological target: T5, Boi2 SH3 (BOI2_YEAST), P39969
[7] = biological target: T6, Rvs167 SH3 (RV167_YEAST), P39743

Sequence of Sho1 SH3 (SHO1_YEAST), P40073 (P40073 295-366): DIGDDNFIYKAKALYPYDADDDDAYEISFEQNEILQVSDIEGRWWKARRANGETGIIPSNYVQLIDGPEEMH

| Binder | normalised SPOT signal, Boehringer light units (BLU); mean over the file's lines of this peptide [1] | normalised SPOT signal, Boehringer light units (BLU); mean over the file's lines of this peptide [2] | normalised SPOT signal, Boehringer light units (BLU); mean over the file's lines of this peptide [3] | normalised SPOT signal, Boehringer light units (BLU); mean over the file's lines of this peptide [4] | normalised SPOT signal, Boehringer light units (BLU); mean over the file's lines of this peptide [5] | normalised SPOT signal, Boehringer light units (BLU); mean over the file's lines of this peptide [6] | normalised SPOT signal, Boehringer light units (BLU); mean over the file's lines of this peptide [7] |
| --- | --- | --- | --- | --- | --- | --- | --- |
| RYSFKLLPPQPGSK [YER114C 841-854] | 23.5 | 352 | 796 | 190 | 15500 | 47.8 | 84 |
| SENGRLTPGLPRSY [YPR111W 42-55] | 52.2 | 240 | 64.5 | 170 | 35.8 | 30.7 | 235 |
| SEAKRKFPEAPEVP [YNL121C 455-468] | 19.7 | 18.5 | 66.4 | 393 | 3.8 | 7 | 116 |
| SDNSKSEPLPPVIT [YFR019W 1795-1808] | 32.7 | 21.6 | 0 | 130 | 23.8 | 1.4 | 54.5 |
| SANGKFIPSRPAPK [YHL007C 465-478] | 14.7 | 539 | 128 | 6760 | 75.2 | 5.4 | 147 |
| SEMHRAAPETPRSI [YKL050C 40-53] | 140 | 904 | 151 | 322 | 95.5 | 28.9 | 207 |
| RYPFRMIPELPPKR [YMR004W 186-199] | 7330 | 18600 | 14100 | 3570 | 2730 | 552 | 14800 |
